Biological target: T1, Vascular Endothelial Growth Factor (VEGF), His-tagged, refolded dimer (UniProt P15692-4 37-135)
T1 sequence (looked up): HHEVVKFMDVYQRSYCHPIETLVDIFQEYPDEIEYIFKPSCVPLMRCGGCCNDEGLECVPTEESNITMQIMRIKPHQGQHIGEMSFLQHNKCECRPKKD

fold increase in luminescence: 15 fold
B1: Flt-1 domain 2 fused to the N-terminal half of firefly luciferase (residues 2-416) (receptor, UniProt P17948 129-229, looked up, not shown: small tags and cut ends)
chain: SDTGRPFVEMYSEIPEIIHMTEGRELVIPCRVTSPNITVTLKKFPLDTLIPDGKRIIWDSRKGFIISNATYKEIGLLTCEATVNGHLYKTNYLTHRQTNTIEDAKNIKKGPAPFYPLEDGTAGEQLHKAMKRYALVPGTIAFTDAHIEVNITYAEYFEMSVRLAEAMKRYGLNTNHRIVVCSENSLQFFMPVLGALFIGVAVAPANDIYNERELLNSMNISQPTVVFVSKKGLQKILNVQKKLPIIQKIIIMDSKTDYQGFQSMYTFVTSHLPPGFNEYDFVPESFDRDKTIALIMNSSGSTGLPKGVALPHRTACVRFSHARDPIFGNQIIPDTAILSVVPFHHGFGMFTTLGYLICGFRVVLMYRFEEELFLRSLQDYKIQSALLVPTLFSFFAKSTLIDKYDLSNLHEIASGGAPLSKEVGEAVAKRFHLPGIRQGYGLTETTSAILITPEGDDKPGAVGKVVPFFEAKVVDLDTGKTLGVNQRGELCVRGPMIMSGYVNNPEATNALIDKDG

Source: patent US20090170069A1 (ARIZONA BOARD OF REGENTS ON BEHALF OF THE UNIVERSITY OF …, published 2009)
